The source of these data is patent publication US20130195866.

The target of the data set is T1, NFATc4 (nuclear factor of activated T cells), endogenous in mouse cortical neurons (UniProt Q8K120).
T1 sequence: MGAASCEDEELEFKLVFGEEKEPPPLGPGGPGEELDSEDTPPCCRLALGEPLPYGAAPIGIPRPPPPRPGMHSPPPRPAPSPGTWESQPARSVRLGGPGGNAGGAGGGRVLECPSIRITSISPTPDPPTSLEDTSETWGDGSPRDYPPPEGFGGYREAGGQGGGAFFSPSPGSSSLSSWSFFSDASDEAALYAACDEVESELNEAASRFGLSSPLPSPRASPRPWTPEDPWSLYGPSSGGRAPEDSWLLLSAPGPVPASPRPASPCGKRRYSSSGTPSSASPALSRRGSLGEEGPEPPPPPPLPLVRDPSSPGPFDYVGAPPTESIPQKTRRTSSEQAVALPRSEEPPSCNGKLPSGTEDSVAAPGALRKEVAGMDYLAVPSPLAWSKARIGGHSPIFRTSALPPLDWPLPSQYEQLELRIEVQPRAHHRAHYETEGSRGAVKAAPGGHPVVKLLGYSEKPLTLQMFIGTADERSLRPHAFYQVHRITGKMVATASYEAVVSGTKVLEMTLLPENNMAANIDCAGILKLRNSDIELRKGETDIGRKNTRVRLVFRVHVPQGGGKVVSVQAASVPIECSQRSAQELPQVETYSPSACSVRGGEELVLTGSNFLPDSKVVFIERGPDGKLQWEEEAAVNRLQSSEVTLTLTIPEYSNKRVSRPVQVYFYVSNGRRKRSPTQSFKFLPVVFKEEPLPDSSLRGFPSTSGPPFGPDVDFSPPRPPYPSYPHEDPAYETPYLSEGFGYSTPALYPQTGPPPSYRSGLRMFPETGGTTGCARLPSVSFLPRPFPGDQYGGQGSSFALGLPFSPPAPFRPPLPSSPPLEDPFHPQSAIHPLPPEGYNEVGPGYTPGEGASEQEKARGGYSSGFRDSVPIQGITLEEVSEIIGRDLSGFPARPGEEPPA

Consider “HA-tagged constitutively active calcineurin, CaNCA (mouse CaN amino acid residues 1-399, 45 kDa form)”, for which the “NFATc4 nuclear distribution in neurons of injected mouse brain” value is “CaNCA-expressing neurons showed high levels of NFATc4 nuclear distribution (data not shown)”.
